Target: the molecule itself
Test: SEC; Superdex 200; 5 mg/ml protein; 20 mM Tris-HCl pH 7.5, 300 mM NaCl, 5% glycerol; elution volume compared with standard proteins

B1: MRB1590(10–668) (domain or fragment, T. brucei, UniProt Q57ZF2 10-668, looked up)
chain: YRGGRGGGRGHSHWHNNAPMERGGHMPSNNEGAAISSGSTGFSPLMDFFHSVEGRNYGELRSLTNETYQISENVRCTFLSIQSDPFAPGSQVRLVCPCTFSLEKVLQTTDLAAANPCRRVAAEDFILRSFHAGYRNGIPRRTSGAVQVLRPSQHVLERSTVGLVKAHQQKSGMQAEIEIFARVKLPGHGRRIDGHGAIDIFYNELVPLLEQCVVGLNEEDLHQHVICVHDQEVLRSNLLGAGYVAFVANGAILPRDAGNSDKPLRDNAVPFQSPKSLECSFTLPHSGKTITGMGLPPGLTLIAGGGFHGKSTLLRALEVGIYNHVPDDGRTYVVVDPTAVKIRAEDRRSVHGVDISPFINNLPFGKTTNFFVTADASGSTSQAANIMEALELGSQLLLLDEDTCATNLMYRDALMQMLVPRAQEPITPFVERVADLSQNHGVSSIMVIGGSGQYFPQARVVLVMNAYQISDCTKEAKEIASNSSLPALNPPGDTASVFIPDVNRCFDPDGSFTTVRRRRGREGTKVSGIGTESIRFSEETIDLSMVEQIVEEGQVNAIAQCLALLYDGEPRIVPEMTTKGGALTQLPSPGGVCEIQRGKFNSNFSSMIAGCCSHQHDKRLELRTPSCYLPRGFTSATRHIEIGAALNRLRTLRTVTAKR
notes: MRB1590, Trypanosoma brucei, residues 10-668 (N-terminal truncation of the full length protein); also called MRB1590–AMP–PNP complex; MRB1590-ADP, crystal form 2 (with poly-U); source: E. coli C41(DE3), purified (nickel-nitrilotriacetic acid column)
  stoichiometry N: 2
